8 molecules from patent publication US20200123264A1 (Regeneron, published 2020) can be followed below.

Holding throughout (assay): Luminex, myc-captured LEPR protein on beads, Ab 5 µg/mL
Assay [1] concerns the target T1, human LEPR Ig (D3)-MMH (human, UniProt P48357 340-427, limits assumed).
T1 construct: domain: Ig (D3); Transiently expressed, captured from supernatant on anti-myc beads
T1 sequence (looked up): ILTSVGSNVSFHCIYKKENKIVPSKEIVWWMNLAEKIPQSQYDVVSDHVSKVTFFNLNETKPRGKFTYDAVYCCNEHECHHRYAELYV
How it is done: (§1) Aliquots of microspheres with immobilized anti-myc monoclonal antibodies, prepared as described above, were added individually to 1 mL of the each of these protein supernatants. The microspheres were gently mixed, incubated for two hours at 25° C., washed twice with 1 mL of DBPS, centrifuged to remove the supernatant and finally resuspended in 1 mL of DPBS buffer. Forty eight μL of anti-myc IgG coupled microspheres from individual reactions with full length human LEPR and with each of the human LEPR domain proteins were withdrawn and mixed together in 3.6 mL of PBS+20 mg/mL BSA+0.05% sodium azide (blocking buffer).
(§2) From this mixed pool, 75 μL of microspheres were plated per well on a 96 well filter plate (Millipore, Cat. No: MSBVN1250) and mixed with 25 μL of individual anti-human LEPR monoclonal antibodies (0.5 or 5 μg/mL), incubated for two hours at 25° C. and then washed twice with 200 μL of DPBS with 0.05% Tween 20 (washing buffer). […] After 30 minutes, the samples were washed twice with 200 μL of washing buffer and resuspended in 150 μL of wash buffer. The Median Fluorescence intensity (MFI) of the microspheres was measured in a Luminex Analyzer.

Assay [2] deals with T2, human LEPR Ig-CRH2-FNIII-MMH (human, UniProt P48357 330-839, limits assumed).
T2 construct: domain: Ig-CRH2-FNIII; Transiently expressed, captured from supernatant on anti-myc beads
T2 sequence (looked up): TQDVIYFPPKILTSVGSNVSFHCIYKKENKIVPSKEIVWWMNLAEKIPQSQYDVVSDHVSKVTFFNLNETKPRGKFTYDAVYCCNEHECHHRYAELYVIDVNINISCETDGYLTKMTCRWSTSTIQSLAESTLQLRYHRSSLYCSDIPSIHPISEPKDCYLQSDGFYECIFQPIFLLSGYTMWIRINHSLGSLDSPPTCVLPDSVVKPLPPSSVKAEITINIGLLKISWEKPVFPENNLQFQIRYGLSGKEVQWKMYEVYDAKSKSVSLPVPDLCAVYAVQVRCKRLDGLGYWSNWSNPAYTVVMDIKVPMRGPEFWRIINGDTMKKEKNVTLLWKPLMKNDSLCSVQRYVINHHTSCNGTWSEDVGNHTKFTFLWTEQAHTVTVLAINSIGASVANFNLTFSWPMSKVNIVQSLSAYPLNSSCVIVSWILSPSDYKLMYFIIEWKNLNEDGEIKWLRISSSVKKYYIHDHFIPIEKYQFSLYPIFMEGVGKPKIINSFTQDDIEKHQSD
How it is done:
as §1, §2

The target of assay [3] is T3, human LEPR CRH2-MMH (human, UniProt P48357 428-634, limits assumed).
T3 construct: domain: CRH2; Transiently expressed, captured from supernatant on anti-myc beads
T3 sequence (looked up): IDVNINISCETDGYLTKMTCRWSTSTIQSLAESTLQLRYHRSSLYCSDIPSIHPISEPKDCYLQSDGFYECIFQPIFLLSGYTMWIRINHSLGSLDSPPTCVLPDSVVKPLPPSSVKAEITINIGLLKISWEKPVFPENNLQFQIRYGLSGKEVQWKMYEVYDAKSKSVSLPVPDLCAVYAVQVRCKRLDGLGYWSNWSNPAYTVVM
How it is done:
as §1, §2

The target in assay [4] is T4, human LEPR FNIII-MMH (human, UniProt P48357 636-839, limits assumed).
T4 construct: domain: FNIII; Transiently expressed, captured from supernatant on anti-myc beads
T4 sequence (looked up): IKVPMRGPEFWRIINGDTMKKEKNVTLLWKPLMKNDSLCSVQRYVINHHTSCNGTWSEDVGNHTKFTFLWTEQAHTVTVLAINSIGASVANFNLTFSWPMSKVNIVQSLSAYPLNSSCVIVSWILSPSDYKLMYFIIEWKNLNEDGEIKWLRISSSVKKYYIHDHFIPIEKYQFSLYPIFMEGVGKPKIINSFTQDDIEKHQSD
Here is the method:
as §1, §2

The target of assay [5] is T5, human LEPR CRH1 (D1,D2)-MMH (human, UniProt P48357 22-339, limits assumed).
T5 construct: domain: CRH1 (D1,D2); Transiently expressed, captured from supernatant on anti-myc beads
T5 sequence (looked up): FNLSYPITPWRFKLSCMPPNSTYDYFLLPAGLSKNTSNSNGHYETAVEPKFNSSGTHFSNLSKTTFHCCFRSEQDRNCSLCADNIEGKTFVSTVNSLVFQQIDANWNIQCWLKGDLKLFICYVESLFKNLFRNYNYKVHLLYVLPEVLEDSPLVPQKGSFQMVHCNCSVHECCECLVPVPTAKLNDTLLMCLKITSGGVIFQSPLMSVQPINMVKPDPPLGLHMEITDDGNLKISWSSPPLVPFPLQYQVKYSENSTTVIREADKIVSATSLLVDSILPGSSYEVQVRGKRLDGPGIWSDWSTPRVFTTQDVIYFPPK
Here is the method: as §1, §2

The target in assay [6] is T6, human LEPR CRH1 (D1,D2,D3)-MMH (human, UniProt P48357 22-427, limits assumed).
T6 construct: domain: CRH1-Ig (D1,D2,D3); Transiently expressed, captured from supernatant on anti-myc beads; also called CRH1-Ig (D1, D2, D3)
T6 sequence (looked up): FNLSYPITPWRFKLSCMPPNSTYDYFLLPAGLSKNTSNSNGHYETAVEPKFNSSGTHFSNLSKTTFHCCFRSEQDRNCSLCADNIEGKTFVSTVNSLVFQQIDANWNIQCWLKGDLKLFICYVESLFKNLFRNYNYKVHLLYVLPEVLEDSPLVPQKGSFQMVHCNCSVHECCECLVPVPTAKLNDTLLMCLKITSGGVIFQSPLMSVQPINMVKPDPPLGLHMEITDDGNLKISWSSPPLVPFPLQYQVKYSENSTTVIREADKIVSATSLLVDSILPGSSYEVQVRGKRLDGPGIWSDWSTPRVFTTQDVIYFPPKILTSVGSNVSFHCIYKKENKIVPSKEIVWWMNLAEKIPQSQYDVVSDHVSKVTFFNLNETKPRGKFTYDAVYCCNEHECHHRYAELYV
How it is done:
as §1, §2

B1: H4H18440P2 (antibody, human IgG4, V domains shown)
VH: QVQLVESGGGMVKPGGSLRLSCAASGFTFSDYYMSWIRQAPGKGLEWISHISITGSTIYYADSVKGRFTISRDNAKNSLYLEMNRLRDEDTAVYYCTRDEPDIVLVRYGMDVWGQGTTVTVSS
VL: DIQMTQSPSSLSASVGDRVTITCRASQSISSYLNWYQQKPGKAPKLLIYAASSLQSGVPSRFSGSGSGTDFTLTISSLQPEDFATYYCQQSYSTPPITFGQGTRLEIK
notes: H4H prefix: human IgG4 Fc
Consider B1, for which the “Luminex MFI” value in assay [1] is 14 MFI; in assay [2], 32 MFI; in assay [3] it was 17 MFI; in assay [4] it was 10 MFI; in assay [5], 19300 MFI; in assay [6], 8240 MFI.

B2: H4H18464P2 (antibody, human IgG4, V domains shown)
VH: QVQLVQSGPEVKKPGASVKVSCKGSGYTFSWYGISWIRQAPGHGLEWMGWISASSGNTRFAQKVQGRLTMTTDTSTSTAYMELRSLRSDDTAVYYCARTGTRPFDYWGQGTLVTVSS
VL: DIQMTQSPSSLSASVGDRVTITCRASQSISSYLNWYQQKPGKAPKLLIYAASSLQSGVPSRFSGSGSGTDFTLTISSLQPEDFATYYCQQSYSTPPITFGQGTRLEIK
notes: H4H prefix: human IgG4 Fc
With B2, the “Luminex MFI” value in assay [2] came to 15100 MFI; in assay [3], 24 MFI; in assay [4] it was 23 MFI; in assay [5] it was 59 MFI; in assay [6] it was 5560 MFI.

B3: H4H17322P2 (antibody, human IgG4, V domains shown)
VH: QLQLQESGPGLVKPSETLSLTCTVSGASISSSRFYGGWIRQPPGKGLEWIGDIYYSGNTYYNPSLQSRVTISVDTSKNQFSLKLSSVTAADTAVYYCARHLMITFGGLIVEGFDIWGQGTMVTVSS
VL: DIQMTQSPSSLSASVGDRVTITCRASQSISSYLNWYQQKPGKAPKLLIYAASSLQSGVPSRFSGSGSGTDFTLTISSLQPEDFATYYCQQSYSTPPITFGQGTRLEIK
notes: H4H prefix: human IgG4 Fc
As for B3, the “Luminex MFI” value in assay [1] amounted to 26 MFI; in assay [2] it was 15100 MFI; in assay [3] it was 19700 MFI; in assay [4], 23 MFI; in assay [5], 50 MFI; in assay [6], 31 MFI.

B4: H4H18466P2 (antibody, human IgG4, V domains shown)
VH: EVQLVESGGGLVQPGGSLRLSCTASGFTFSSYGLHWVRQAPGKGLEYVSSINHNGGSKYYADSVKGRFTISRDNSKNTLFLQMGSLKTEDMAVYYCARDLFLEWLFHGFDIWGQGTMVTVSS
VL: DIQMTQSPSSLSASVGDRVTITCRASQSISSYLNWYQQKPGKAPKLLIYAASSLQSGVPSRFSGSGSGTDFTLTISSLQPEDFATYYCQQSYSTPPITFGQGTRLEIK
notes: H4H prefix: human IgG4 Fc
As to B4, the “Luminex MFI” value in assay [1] was 26 MFI; in assay [2], 11300 MFI; in assay [3], 17 MFI; in assay [4], 457 MFI; in assay [5], 56 MFI.

B5: H4H18437P2 (antibody, human IgG4, V domains shown)
VH: QVQLVESGGGVVQPGRSLRLSCAASGFTFSSYGIHWVRQAPGKGLEWVAVISYDGNNKYYADSVKGRFTISRDNSKNTLYLQMNSLRAEDTAVYYCAKDLFLEWLFHGMGVWGQGTTVTVSS
VL: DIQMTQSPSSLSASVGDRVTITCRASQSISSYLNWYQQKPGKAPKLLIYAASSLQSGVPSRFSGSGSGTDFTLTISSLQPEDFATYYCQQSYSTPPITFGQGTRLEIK
notes: H4H prefix: human IgG4 Fc
As for B5, the “Luminex MFI” value came out at 26 MFI in assay [1]; 15600 MFI in assay [2]; 25 MFI in assay [3]; 1590 MFI in assay [4]; 82 MFI in assay [5]; 34 MFI in assay [6].

B6: H4H18439P2 (antibody, human IgG4, V domains shown)
VH: QLQLQESGPGLVKPSETLSLTCIVSGGDITSSSYYWNWIRQPPGKGLEWIGNIYYSGSTNYNPSLKSRVTISIDTSKSQFSLKLRSVTAADTAVYYCARLLRYFDWSKGYLDYWGQGTLVTVSS
VL: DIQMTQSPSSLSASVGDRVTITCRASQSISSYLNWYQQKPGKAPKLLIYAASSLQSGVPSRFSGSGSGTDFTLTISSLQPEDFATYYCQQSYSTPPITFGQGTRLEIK
notes: H4H prefix: human IgG4 Fc
B6: the “Luminex MFI” value in assay [1] is 18 MFI; in assay [2], 43 MFI; in assay [3] it was 16 MFI; in assay [4], 13 MFI; in assay [5] it was 21200 MFI; in assay [6], 8020 MFI.

B7: H4H18457P2 (antibody, human IgG4, V domains shown)
VH: EVQLVESGGSVVRPGESLRLSCAASGFTFDDYGMSWVRQAPGKGLEWVSGISWNGGITVYADSVKGRFTVSRDNAKNSLYLQMNSLRAEDTALYHCARARYGGADYWGQGTLVTVSS
VL: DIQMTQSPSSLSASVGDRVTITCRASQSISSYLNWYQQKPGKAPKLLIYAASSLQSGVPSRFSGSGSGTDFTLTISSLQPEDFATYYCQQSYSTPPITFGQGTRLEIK
notes: H4H prefix: human IgG4 Fc
With B7, the “Luminex MFI” value in assay [1] was determined as 18 MFI; in assay [2], 13200 MFI; in assay [3], 18 MFI; in assay [4], 1190 MFI; in assay [5], 53 MFI; in assay [6] it was 31 MFI.

B8: H4H18462P2 (antibody, human IgG4, V domains shown)
VH: EVQLVESGGDLVQPGRSLRLSCAASGFTFSSFAMSWVRQAPGRGLEWVSSLSDSGDNTYYADSVKGRFTISRDNSKNTLYLQMNNLRAEDTAVYYCAKDLFSGWLFHGFDVWGQGTMVTVSS
VL: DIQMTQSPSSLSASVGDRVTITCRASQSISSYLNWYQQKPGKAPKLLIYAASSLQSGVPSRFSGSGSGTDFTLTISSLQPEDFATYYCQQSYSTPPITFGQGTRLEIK
notes: H4H prefix: human IgG4 Fc
Turning to B8, the “Luminex MFI” value is 21 MFI in assay [1]; 14900 MFI in assay [2]; 24 MFI in assay [3]; 581 MFI in assay [4]; 5730 MFI in assay [5]; 3960 MFI in assay [6].
